Data: patent US4388232A, “Method of producing plasma fractions free of side-effects using fast-reacting antithrombin” (Immuno Aktiengesellschaft fur Chemisch Medizinische Produkte, priority 1979, dated 1983)

Tested on: NMRI mice
Experiment: LD50 test (toxicity of a preparation)
Assay type: in vivo, mouse (NMRI)
Details: intravenous
Protocol: The LD50 -test serves for determining the toxicity of a preparation. LD50 is the dose at which 50% of the animals die under experimental conditions. The preparation is intravenously injected in at least three dosages into ten NMRI ([…]) mice each, having a minimum body weight of 20 g. After an observation time of 7 days the living animals per dosage group are counted. The LD50 is calculated in accordance with Wilson and Worcester, Proc. Nat. Acad. Sci. U.S.A. 29, 114 (1943).

In the case of “Example 11: C1-esterase inhibitor, prepared with antithrombin III and heparin”, the “tolerance in LD50 test” value (7 days observation) is reported as “excellently tolerated” and the LD50 (7 days observation, 5,300 = maximum injectable amount C1-esterase-inhibitor) is reported as > 5,300 units per kg body weight.
